This note sets out measurements from the supplement of paper PMC9732359.

This data set can be described thus: protein stability index of a GFP-peptide fusion (yeast GPS) (PSI 1-4); higher = more stable; sorted into four equal gates, so the index is relative within each strain. The method, boiled down:
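Plasmids in a pooled yeast library fused tiled 17-residue yeast protein peptides downstream of GFP and also expressed Cherry. Mid-log cultures grown without leucine were sorted into four equal gates by GFP/Cherry fluorescence ratio. Each gate's plasmids were PCR-amplified and Illumina-sequenced, and reads were matched to strains by barcodes. The protein stability index is derived by multiplying each gate's read frequency by its gate number and summing the results.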

± gives the uncertainty stated by the source.

VYFGDENKVMLPRCSKE [RRI2]: the protein stability index reads like this: (doa10∆) 3.24 ± 0.091; (pdr5∆) 3.37 ± 0.089; (san1∆) 3.11 ± 0.074; (ubr1∆) 3.13 ± 0.063.
Regarding CVDDNSKISFIDEDKLY [SSN2], the protein stability index came out at 3.59 ± 0.25 (doa10∆), 2.98 ± 0.1 (pdr5∆) and 2.82 ± 0.29 (ubr1∆).
For LNENARELEQIKPKIAL [SNF12], the protein stability index was determined as 3.23 ± 0.3 (doa10∆), 3 ± 0.23 (pdr5∆) and 2.64 ± 0.25 (san1∆).
Take HAMGGREGLIDTAVKTA [RPO21]: the protein stability index by setting is: (doa10∆) 1.24 ± 0.076; (pdr5∆) 1.35 ± 0.065; (san1∆) 1.23 ± 0.15; (ubr1∆) 1.17 ± 0.054.
The corresponding values for QKYNLLHVLPTLNSRAL [SNM1] are 1.45 ± 0.084, 1.74 ± 0.078, 1.27 ± 0.18 and 1.56 ± 0.11.
For ELPLEDFKAKYCDSMGR [RPB5], the protein stability index runs as follows: (doa10∆) 3.31 ± 0.13; (pdr5∆) 3.29 ± 0.14; (san1∆) 3.74 ± 0.13; (ubr1∆) 3.51 ± 0.12.
As to FGQKGGQAIVVHPDYLY [FAS2], the protein stability index by setting is: (doa10∆) 1.86 ± 0.046; (pdr5∆) 1.62 ± 0.04; (san1∆) 1.99 ± 0.06; (ubr1∆) 1.68 ± 0.049.
In the same order, the values of DKQAEGTPLFTFGKKAD [YOR098C/NUP1] are 2.43 ± 0.06, 2.43 ± 0.078, 2.5 ± 0.077 and 1.75 ± 0.066.
The corresponding values for MTDMQIQWYKSLLEKDI [ISW2] are 1.84 ± 0.058, 2.35 ± 0.062, 1.74 ± 0.092 and 2.78 ± 0.061.
The corresponding values for HDEKLSDELHNQSTIYE [LIN1] are 2.91 ± 0.11, 2.74 ± 0.12, 2.73 ± 0.16 and 2.77 ± 0.097.
Turning to YRLMIKRLNFSFVGDYM [GRR1], the protein stability index was determined as 2 ± 0.065 (doa10∆), 1.41 ± 0.052 (pdr5∆), 1.53 ± 0.095 (san1∆) and 1.51 ± 0.054 (ubr1∆).
The corresponding values for RKCETQKQWDDIAFVLN [YCS4] are 2.96 ± 0.076, 3.01 ± 0.076, 2.7 ± 0.12 and 3.13 ± 0.078.
The corresponding values for EFVDDYTVNVVDVFAMP [RPN11] are 3.08 ± 0.19, 3.01 ± 0.17, 2.91 ± 0.12 and 3.13 ± 0.13.
Regarding AIVPGQSISGTLELSAQ [SWP82], the protein stability index was 3.43 ± 0.094 (doa10∆), 3.13 ± 0.11 (pdr5∆), 2.98 ± 0.14 (san1∆) and 3.07 ± 0.092 (ubr1∆).
In the same order, the values of QIQKNVDLLQFPWLNAI [POP3] are 2.29 ± 0.07, 2.09 ± 0.073, 3.32 ± 0.11 and 2.35 ± 0.06.
In the same order, the values of AHELQSEDVSRDHEKDT [YIL149C/MLP2] are 2.38 ± 0.085, 2.73 ± 0.072, 2.8 ± 0.061 and 2.68 ± 0.082.
The corresponding values for LILSGDTTANNGKVQYF [YJL039C/NUP192] are 2.89 ± 0.091, 2.52 ± 0.086, 2.9 ± 0.09 and 2.95 ± 0.064.
The sequence KPMTAYARADTHFLLNI [RRP6] showed a protein stability index (doa10∆) of 2.26 ± 0.05, a protein stability index (pdr5∆) of 2.17 ± 0.047, a protein stability index (san1∆) of 2.34 ± 0.06 and a protein stability index (ubr1∆) of 1.87 ± 0.046.
The corresponding values for KTIVTGGNGPEDFQQHE [RPO26] are 3.29 ± 0.069, 3.33 ± 0.055, 3.32 ± 0.056 and 3.31 ± 0.039.
The corresponding values for KKPRKPRQTKKAKAQAQ [PGD1] are 3.2 ± 0.13, 3.48 ± 0.096, 3.22 ± 0.062 and 3.12 ± 0.1.
The corresponding values for RKCQFRTPDSISVNSSS [POP1] are 2.44 ± 0.074, 2.52 ± 0.073, 2.64 ± 0.056 and 2.37 ± 0.062.
KTRFKGSQFIVVSLKEG [SMC2] had a protein stability index (doa10∆) of 3.46 ± 0.12, a protein stability index (pdr5∆) of 3.16 ± 0.08, a protein stability index (san1∆) of 3.35 ± 0.069 and a protein stability index (ubr1∆) of 3.34 ± 0.046.
The corresponding values for LEDYVPHQSPDATRVFV [RPB2] are 2.82 ± 0.055, 2.87 ± 0.055, 2.97 ± 0.04 and 3.07 ± 0.04.
In the same order, the values of IALLTLKESVEGEFNGD [PRE8] are 2.77 ± 0.21, 2.77 ± 0.17, 2.64 ± 0.15 and 2.75 ± 0.11.
In the same order, the values of AFHTAVLRLNAIPLLKV [NUT1] are 1.94 ± 0.059, 2.43 ± 0.053, 2.35 ± 0.07 and 1.99 ± 0.05.
For NAYGFIEWCSRCNDNLM [YJL039C/NUP192], the protein stability index by setting is: (doa10∆) 3 ± 0.079; (pdr5∆) 2.54 ± 0.088; (san1∆) 2.75 ± 0.083; (ubr1∆) 2.24 ± 0.078.
